Reference: patent US20140087995A1 (published 2014)
Numbered stars: 1 amine (or outer) side, 2 acyl side, 3 side chain; on linkers, the order of the positions; unused ones are H or OH. Bridge positions count the residues as written; N and C are the ends. Side chains are listed from the residue outwards. Ends that are not written are not given here. * marks the point of attachment. C20 diacid = O=C(O)CCCCCCCCCCCCCCCCCCC(=O)*; γGlu = O=C(O)[C@H](CCC(=O)[*:2])N[*:1]

T1: human amylin receptor (amylin 3(a) receptor: human calcitonin receptor with RAMP-3) (human, UniProt P30988 25-474; O60896 24-148)
T1 construct: whole, on cells; also called hAmylin-R; hAmylinR
T1 sequence (looked up) 1: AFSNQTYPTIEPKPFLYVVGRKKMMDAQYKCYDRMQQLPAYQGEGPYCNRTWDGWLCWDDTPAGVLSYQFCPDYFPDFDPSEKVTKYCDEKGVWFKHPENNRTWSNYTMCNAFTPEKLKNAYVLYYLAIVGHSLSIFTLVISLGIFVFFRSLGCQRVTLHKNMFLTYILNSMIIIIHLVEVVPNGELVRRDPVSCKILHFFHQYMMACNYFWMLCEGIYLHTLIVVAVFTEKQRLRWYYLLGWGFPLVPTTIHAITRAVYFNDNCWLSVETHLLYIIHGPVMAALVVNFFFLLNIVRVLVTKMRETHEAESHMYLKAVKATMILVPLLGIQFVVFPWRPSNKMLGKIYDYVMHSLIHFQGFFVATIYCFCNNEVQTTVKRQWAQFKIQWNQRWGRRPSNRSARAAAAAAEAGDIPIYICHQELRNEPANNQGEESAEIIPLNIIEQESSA
T1 sequence (looked up) 2: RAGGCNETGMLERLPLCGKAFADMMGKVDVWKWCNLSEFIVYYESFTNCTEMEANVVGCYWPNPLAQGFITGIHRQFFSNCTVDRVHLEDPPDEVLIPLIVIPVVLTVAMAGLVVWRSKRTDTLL

B1: N^ε1-[(4S)-4-carboxy-4-[[(4S)-4-carboxy-4-(19-carboxynonadecanoylamino)butanoyl]amino]butanoyl]-[Asp14,Arg17,Pro21,Pro26,Asp35]-h-amylin (peptide)
peptide: K([γGlu-γGlu-C20 diacid])CNTATCATQRLADFLRHSSPNFGAPLSSTNVGSDTY-NH2
modifications: disulfide 2-7; N-terminus assumed
SMILES: CC(C)C[C@H](NC(=O)[C@H](CCCNC(=N)N)NC(=O)[C@H](CCC(N)=O)NC(=O)[C@@H](NC(=O)[C@H](C)NC(=O)[C@@H]1CSSC[C@H](NC(=O)[C@@H](N)CCCCNC(=O)CC[C@H](NC(=O)CC[C@H](NC(=O)CCCCCCCCCCCCCCCCCCC(=O)O)C(=O)O)C(=O)O)C(=O)N[C@@H](CC(N)=O)C(=O)N[C@@H]([C@@H](C)O)C(=O)N[C@@H](C)C(=O)N[C@@H]([C@@H](C)O)C(=O)N1)[C@@H](C)O)C(=O)N[C@@H](C)C(=O)N[C@@H](CC(=O)O)C(=O)N[C@@H](Cc1ccccc1)C(=O)N[C@@H](CC(C)C)C(=O)N[C@@H](CCCNC(=N)N)C(=O)N[C@@H](Cc1c[nH]cn1)C(=O)N[C@@H](CO)C(=O)N[C@@H](CO)C(=O)N1CCC[C@H]1C(=O)N[C@@H](CC(N)=O)C(=O)N[C@@H](Cc1ccccc1)C(=O)NCC(=O)N[C@@H](C)C(=O)N1CCC[C@H]1C(=O)N[C@@H](CC(C)C)C(=O)N[C@@H](CO)C(=O)N[C@@H](CO)C(=O)N[C@H](C(=O)N[C@@H](CC(N)=O)C(=O)N[C@H](C(=O)NCC(=O)N[C@@H](CO)C(=O)N[C@@H](CC(=O)O)C(=O)N[C@H](C(=O)N[C@@H](Cc1ccc(O)cc1)C(N)=O)[C@@H](C)O)C(C)C)[C@@H](C)O
notes: also called compound 1
B2: N^ε1-[(4S)-4-carboxy-4-[[(4S)-4-carboxy-4-(19-carboxynonadecanoylamino)butanoyl]amino]butanoyl]-[Asp14,Arg17,Pro21,Pro27,Arg35]-h-amylin (peptide)
peptide: K([γGlu-γGlu-C20 diacid])CNTATCATQRLADFLRHSSPNFGAIPSSTNVGSRTY-NH2
modifications: disulfide 2-7; N-terminus assumed
SMILES: CC[C@H](C)[C@H](NC(=O)[C@H](C)NC(=O)CNC(=O)[C@H](Cc1ccccc1)NC(=O)[C@H](CC(N)=O)NC(=O)[C@@H]1CCCN1C(=O)[C@H](CO)NC(=O)[C@H](CO)NC(=O)[C@H](Cc1c[nH]cn1)NC(=O)[C@H](CCCNC(=N)N)NC(=O)[C@H](CC(C)C)NC(=O)[C@H](Cc1ccccc1)NC(=O)[C@H](CC(=O)O)NC(=O)[C@H](C)NC(=O)[C@H](CC(C)C)NC(=O)[C@H](CCCNC(=N)N)NC(=O)[C@H](CCC(N)=O)NC(=O)[C@@H](NC(=O)[C@H](C)NC(=O)[C@@H]1CSSC[C@H](NC(=O)[C@@H](N)CCCCNC(=O)CC[C@H](NC(=O)CC[C@H](NC(=O)CCCCCCCCCCCCCCCCCCC(=O)O)C(=O)O)C(=O)O)C(=O)N[C@@H](CC(N)=O)C(=O)N[C@@H]([C@@H](C)O)C(=O)N[C@@H](C)C(=O)N[C@@H]([C@@H](C)O)C(=O)N1)[C@@H](C)O)C(=O)N1CCC[C@H]1C(=O)N[C@@H](CO)C(=O)N[C@@H](CO)C(=O)N[C@H](C(=O)N[C@@H](CC(N)=O)C(=O)N[C@H](C(=O)NCC(=O)N[C@@H](CO)C(=O)N[C@@H](CCCNC(=N)N)C(=O)N[C@H](C(=O)N[C@@H](Cc1ccc(O)cc1)C(N)=O)[C@@H](C)O)C(C)C)[C@@H](C)O
notes: also called 52; compound 52
B3: N^ε1-[(4S)-4-carboxy-4-[[(4S)-4-carboxy-4-(19-carboxynonadecanoylamino)butanoyl]amino]butanoyl]-[Glu14,Arg17,Pro21,Pro27,Arg35]-h-amylin (peptide)
peptide: K([γGlu-γGlu-C20 diacid])CNTATCATQRLAEFLRHSSPNFGAIPSSTNVGSRTY-NH2
modifications: disulfide 2-7; N-terminus assumed
SMILES: CC[C@H](C)[C@H](NC(=O)[C@H](C)NC(=O)CNC(=O)[C@H](Cc1ccccc1)NC(=O)[C@H](CC(N)=O)NC(=O)[C@@H]1CCCN1C(=O)[C@H](CO)NC(=O)[C@H](CO)NC(=O)[C@H](Cc1c[nH]cn1)NC(=O)[C@H](CCCNC(=N)N)NC(=O)[C@H](CC(C)C)NC(=O)[C@H](Cc1ccccc1)NC(=O)[C@H](CCC(=O)O)NC(=O)[C@H](C)NC(=O)[C@H](CC(C)C)NC(=O)[C@H](CCCNC(=N)N)NC(=O)[C@H](CCC(N)=O)NC(=O)[C@@H](NC(=O)[C@H](C)NC(=O)[C@@H]1CSSC[C@H](NC(=O)[C@@H](N)CCCCNC(=O)CC[C@H](NC(=O)CC[C@H](NC(=O)CCCCCCCCCCCCCCCCCCC(=O)O)C(=O)O)C(=O)O)C(=O)N[C@@H](CC(N)=O)C(=O)N[C@@H]([C@@H](C)O)C(=O)N[C@@H](C)C(=O)N[C@@H]([C@@H](C)O)C(=O)N1)[C@@H](C)O)C(=O)N1CCC[C@H]1C(=O)N[C@@H](CO)C(=O)N[C@@H](CO)C(=O)N[C@H](C(=O)N[C@@H](CC(N)=O)C(=O)N[C@H](C(=O)NCC(=O)N[C@@H](CO)C(=O)N[C@@H](CCCNC(=N)N)C(=O)N[C@H](C(=O)N[C@@H](Cc1ccc(O)cc1)C(N)=O)[C@@H](C)O)C(C)C)[C@@H](C)O
notes: also called 89; compound 89
B4: N^ε1-[(4S)-4-carboxy-4-[[(4S)-4-carboxy-4-(19-carboxynonadecanoylamino)butanoyl]amino]butanoyl]-[Asp14,Arg17,Pro22,Pro26,Asp35]-h-amylin (peptide)
peptide: K([γGlu-γGlu-C20 diacid])CNTATCATQRLADFLRHSSNPFGAPLSSTNVGSDTY-NH2
modifications: disulfide 2-7; N-terminus assumed
SMILES: CC(C)C[C@H](NC(=O)[C@H](CCCNC(=N)N)NC(=O)[C@H](CCC(N)=O)NC(=O)[C@@H](NC(=O)[C@H](C)NC(=O)[C@@H]1CSSC[C@H](NC(=O)[C@@H](N)CCCCNC(=O)CC[C@H](NC(=O)CC[C@H](NC(=O)CCCCCCCCCCCCCCCCCCC(=O)O)C(=O)O)C(=O)O)C(=O)N[C@@H](CC(N)=O)C(=O)N[C@@H]([C@@H](C)O)C(=O)N[C@@H](C)C(=O)N[C@@H]([C@@H](C)O)C(=O)N1)[C@@H](C)O)C(=O)N[C@@H](C)C(=O)N[C@@H](CC(=O)O)C(=O)N[C@@H](Cc1ccccc1)C(=O)N[C@@H](CC(C)C)C(=O)N[C@@H](CCCNC(=N)N)C(=O)N[C@@H](Cc1c[nH]cn1)C(=O)N[C@@H](CO)C(=O)N[C@@H](CO)C(=O)N[C@@H](CC(N)=O)C(=O)N1CCC[C@H]1C(=O)N[C@@H](Cc1ccccc1)C(=O)NCC(=O)N[C@@H](C)C(=O)N1CCC[C@H]1C(=O)N[C@@H](CC(C)C)C(=O)N[C@@H](CO)C(=O)N[C@@H](CO)C(=O)N[C@H](C(=O)N[C@@H](CC(N)=O)C(=O)N[C@H](C(=O)NCC(=O)N[C@@H](CO)C(=O)N[C@@H](CC(=O)O)C(=O)N[C@H](C(=O)N[C@@H](Cc1ccc(O)cc1)C(N)=O)[C@@H](C)O)C(C)C)[C@@H](C)O
notes: also called compound 3
B5: N^ε1-[(4S)-4-carboxy-4-[[(4S)-4-carboxy-4-(19-carboxynonadecanoylamino)butanoyl]amino]butanoyl]-[Asp14,Arg17,Pro21,Pro27,Asp35]-h-amylin (peptide)
peptide: K([γGlu-γGlu-C20 diacid])CNTATCATQRLADFLRHSSPNFGAIPSSTNVGSDTY-NH2
modifications: disulfide 2-7; N-terminus assumed
SMILES: CC[C@H](C)[C@H](NC(=O)[C@H](C)NC(=O)CNC(=O)[C@H](Cc1ccccc1)NC(=O)[C@H](CC(N)=O)NC(=O)[C@@H]1CCCN1C(=O)[C@H](CO)NC(=O)[C@H](CO)NC(=O)[C@H](Cc1c[nH]cn1)NC(=O)[C@H](CCCNC(=N)N)NC(=O)[C@H](CC(C)C)NC(=O)[C@H](Cc1ccccc1)NC(=O)[C@H](CC(=O)O)NC(=O)[C@H](C)NC(=O)[C@H](CC(C)C)NC(=O)[C@H](CCCNC(=N)N)NC(=O)[C@H](CCC(N)=O)NC(=O)[C@@H](NC(=O)[C@H](C)NC(=O)[C@@H]1CSSC[C@H](NC(=O)[C@@H](N)CCCCNC(=O)CC[C@H](NC(=O)CC[C@H](NC(=O)CCCCCCCCCCCCCCCCCCC(=O)O)C(=O)O)C(=O)O)C(=O)N[C@@H](CC(N)=O)C(=O)N[C@@H]([C@@H](C)O)C(=O)N[C@@H](C)C(=O)N[C@@H]([C@@H](C)O)C(=O)N1)[C@@H](C)O)C(=O)N1CCC[C@H]1C(=O)N[C@@H](CO)C(=O)N[C@@H](CO)C(=O)N[C@H](C(=O)N[C@@H](CC(N)=O)C(=O)N[C@H](C(=O)NCC(=O)N[C@@H](CO)C(=O)N[C@@H](CC(=O)O)C(=O)N[C@H](C(=O)N[C@@H](Cc1ccc(O)cc1)C(N)=O)[C@@H](C)O)C(C)C)[C@@H](C)O
notes: also called compound 2
B6: N^ε1-[(4S)-4-carboxy-4-[[(4S)-4-carboxy-4-(19-carboxynonadecanoylamino)butanoyl]amino]butanoyl]-[Glu14,Arg17,Pro21,Pro27,Arg34]-h-amylin (peptide)
peptide: K([γGlu-γGlu-C20 diacid])CNTATCATQRLAEFLRHSSPNFGAIPSSTNVGRNTY-NH2
modifications: disulfide 2-7; N-terminus assumed
SMILES: CC[C@H](C)[C@H](NC(=O)[C@H](C)NC(=O)CNC(=O)[C@H](Cc1ccccc1)NC(=O)[C@H](CC(N)=O)NC(=O)[C@@H]1CCCN1C(=O)[C@H](CO)NC(=O)[C@H](CO)NC(=O)[C@H](Cc1c[nH]cn1)NC(=O)[C@H](CCCNC(=N)N)NC(=O)[C@H](CC(C)C)NC(=O)[C@H](Cc1ccccc1)NC(=O)[C@H](CCC(=O)O)NC(=O)[C@H](C)NC(=O)[C@H](CC(C)C)NC(=O)[C@H](CCCNC(=N)N)NC(=O)[C@H](CCC(N)=O)NC(=O)[C@@H](NC(=O)[C@H](C)NC(=O)[C@@H]1CSSC[C@H](NC(=O)[C@@H](N)CCCCNC(=O)CC[C@H](NC(=O)CC[C@H](NC(=O)CCCCCCCCCCCCCCCCCCC(=O)O)C(=O)O)C(=O)O)C(=O)N[C@@H](CC(N)=O)C(=O)N[C@@H]([C@@H](C)O)C(=O)N[C@@H](C)C(=O)N[C@@H]([C@@H](C)O)C(=O)N1)[C@@H](C)O)C(=O)N1CCC[C@H]1C(=O)N[C@@H](CO)C(=O)N[C@@H](CO)C(=O)N[C@H](C(=O)N[C@@H](CC(N)=O)C(=O)N[C@H](C(=O)NCC(=O)N[C@@H](CCCNC(=N)N)C(=O)N[C@@H](CC(N)=O)C(=O)N[C@H](C(=O)N[C@@H](Cc1ccc(O)cc1)C(N)=O)[C@@H](C)O)C(C)C)[C@@H](C)O
notes: also called 88; compound 88

target: T1, human amylin receptor (amylin 3(a) …); assay: SPA displacement of 125I-rat amylin, hAmylin 3(a) receptor membranes
Summary of the method: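 SPA beads with BHK Amylin 3(a)/CRE-luc cell membranes (35 ng/μL final) in 50 mM Hepes pH 7.4, 1 mM CaCl2, 5 mM MgCl₂, 0.1% OA, 0.02% Tween20.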

Compared with B1, B2 is 1.7-fold lower in IC50: 1.18 nM for the first, 0.697 nM for the second. The second is the more potent here.

B3 and B4 are within 1.5-fold of each other in IC50: 1.16 nM for the first, 1.13 nM for the second.

First: B5
Second: B6
The IC50 of the first is 1.8-fold lower: 0.411 nM for the first, 0.75 nM for the second.
